Consider 4 substances from patent publication US20250243471A1.

In assay [1] the target is EcAvs4 Q63A/K65A with internal TwinStrep tag between residues 114 and 115 (cryo-EM construct) (Escherichia coli NCTC11132). The assay is described as follows: cryo-EM; interface between adjacent STAND ATPase domains in the portal-bound EcAvs4 tetramer.
The target in assay [2] is PhiV-1 gp8 portal protein (coliphage PhiV-1). The experiment in a line: cryo-EM structure of the EcAvs4-portal complex.
Assay [3] addresses PhiV-1 gp19 large terminase subunit (coliphage PhiV-1). The experiment in a line: cell-based or functional assay.
Assay [4] has as its target PhiV-1 gp8 portal protein (coliphage PhiV-1). The experiment in a line: cell-based or functional assay.
Assay [5] addresses PhiV-1 gp19 large terminase subunit (coliphage PhiV-1). The experiment in a line: cryo-EM structure of the SeAvs3-terminase complex.
For assay [6], the target named is PhiV-1 gp19 terminase with StrepTag (gp19-StrepTag) (coliphage PhiV-1). The assay is described as follows: tandem affinity purification (Ni-NTA, Strep-Tactin), Superose 6 Increase peak, SDS-PAGE band intensity.
In assay [7] the target is SeAvs3 from Salmonella enterica NCTC13175 with C-terminal 6xHis tag (purified recombinant) (Salmonella enterica NCTC13175). The experiment in a line: cryo-EM; interface between adjacent STAND ATPase domains in the terminase-bound SeAvs3 tetramer.

The substance “EcAvs4 Q63A/K65A with internal TwinStrep tag between residues 114 and 115 (cryo-EM construct) (receptor)” registered a buried surface area in assay [1] of 1230 Å^2. Also, the buried solvent-accessible surface area in assay [2] was found to be 5800 Å2.

Turning to “EcAvs4 from Escherichia coli NCTC11132 expressed in E. coli (genetic assays) (receptor)”, the Abundance relative to E. coli NovaBlue control (PhiV-1 fragment screen, deep sequencing of surviving plasmids) in assay [3] was 0.11; in assay [4], less than 0.0001.

For “SeAvs3 from Salmonella enterica NCTC13175 expressed in E. coli (genetic assays) (receptor)”, the Abundance relative to E. coli NovaBlue control (PhiV-1 fragment screen, deep sequencing of surviving plasmids) in assay [3] was less than 0.0001; in assay [4], 0.65.

“SeAvs3 from Salmonella enterica NCTC13175 with C-terminal 6xHis tag (purified recombinant) (receptor)” yielded a buried solvent-accessible surface area in assay [5] of more than 3700 Å2. In assay [6], the ratio of SeAvs3 and gp19 in the complex peak (SeAvs3:gp19 ratio) was 1. In addition, the buried surface area in assay [7] was 436 Å^2.
